Results: article PMC4456301 (Structure (London, England : 1993), 2015)

Molecular target: the molecule itself
Experiment: AUC

B1: R135_50, a variant of Mimivirus R135 lacking the first 50 amino acids (domain or fragment)
chain: TKDNLTGDIVIIGAGAAGSLLAHYLARFSNMKIILLEAGHSHFNDPVVTDPMGFFGKYNPPNENISMSQNPSYSWQGAQEPNTGAYGNRPIIAHGMGFGGSTMINRLNLVVGGRTVFDNDWPVGWKYDDVKNYFRRVLVDINPVRDNTKASITSVALDALRIIAEQQIASGEPVDFLLNKATGNVPNVEKTTPDAVPLNLNDYEGVNSVVAFSSFYMGVNQLSDGNYIRKYAGNTYLNRNYVDENGRGIGKFSGLRVVSDAVVDRIIFKGNRAVGVNYIDREGIMHYVKVNKEVVVTSGAFYTPTILQRSGIGDFTYLSSIGVKNLVYNNPLVGTGLKNHYSPVTITRVHGEPSEVSRFLSNMAANPTNMGFKGLAELGFHRLDPNKPANANTVTYRKYQLMMTAGVGIPAEQQYLSGLSPSSNNLFTLIADDIRFAPEGYIKIGTPNIPRDVPKIFFNTFVTYTPTSAPADQQWPIAQKTLAPLISALLGYDIIYQTLMSMNQTARDSGFQVSLEMVYPLNDLIYKLHNGLATYGANWWHYFVPTLVGDDTPAGREFADTLSKLSYYPRVGAHLDSHQGCSCSIGRTVDSNLKVIGTQNVRVADLSAAAFPPGGNTWATASMIGARAVDLILGFPYLRDLPVNDVPILNVN
In the case of B1, the “stoichiometry N” value is reported as 2.
